These results are taken from patent US20190032056.

Data set [1] addresses complement Factor D (fD) (Homo sapiens) (UniProt P00746). Nature of the data set: flow. To be noted: 2'-F G, 2'-OMe A,C,U, 37 C.
In data set [2] the target is complement Factor D (fD) in C1q-depleted human serum (Homo sapiens) (UniProt P00746). Nature of the data set: inhibition. To be noted: hemolysis; non-specific control oligo.
In data set [3] the target is complement Factor D (fD) (Homo sapiens) (UniProt P00746). Nature of the data set: inhibition. To be noted: control oligo.
Chain of complement Factor D (fD) (Homo sapiens) (P00746 26-253): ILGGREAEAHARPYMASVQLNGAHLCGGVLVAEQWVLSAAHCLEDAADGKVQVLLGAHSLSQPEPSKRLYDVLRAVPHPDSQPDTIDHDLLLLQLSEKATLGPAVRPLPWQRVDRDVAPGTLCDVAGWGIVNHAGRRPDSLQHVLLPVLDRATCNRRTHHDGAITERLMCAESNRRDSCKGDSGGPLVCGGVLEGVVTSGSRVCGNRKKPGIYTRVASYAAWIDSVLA
The mark [4] stands for this setting: SB1T, 100 nM AFD Fab reduces signal about 75-90%.

Chain of complement Factor D (fD) in C1q-depleted human serum (Homo sapiens) (P00746 26-253): as above

Substance “GGGAGUGUGUACGAGGCAUUAGGCCGCCNNNNNNNNNNNNNNNNNNNNNNNNNNNNNNGGCGGCUUUGAUACUUGAUCGCCCUAGAAGC [N30S library round 6]” gave a Kd in data set [1] (SB1T with BSA and ssDNA, bead-immobilized fD) of 34.4 nM.
As to “GGGAGUGUGUACGAGGCAUUAGGCCGCCNNNNNNNNNNNNNNNNNNNNNNNNNNNNNNGGCGGCUUUGAUACUUGAUCGCCCUAGAAGC [N30S library round 8]”, the Kd in data set [1] (setting [4]) turned out to be 8.8 nM. In other words, the single-digit nanomolar range.
With “GGGAGUGUGUACGAGGCAUUAGGCCGCCNNNNNNNNNNNNNNNNNNNNNNNNNNNNNNGGCGGCUUUGAUACUUGAUCGCCCUAGAAGC [N30S library round 7]”, the dissociation constant (Kd) in data set [1] (setting [4]) was found to be 45.1 nM.
Consider C8 non-specific control oligo, for which the IC50 in data set [2] is > 160 nM. The same substance had an activity (% esterase activity) in data set [3] of 105.
